This note sets out measurements from US20200291075A1 (TRUSTEES OF PRINCETON UNIVERSITY, published 2020).

Where “and” joins values, the source holds several entries; their conditions need not be identical. Equal values may be shown once. Read-outs that look alike come from different tables or passages of the source.

Broadly, the Kd is the free concentration of one partner at which half of the binding sites on the other are occupied at equilibrium, for simple one-to-one binding. A low value points to tighter binding. In general, koff refers to the rate constant with which the complex falls apart. Low values mean a long-lived complex, high ones a short-lived complex. A word on the kon: it is the second-order rate constant of association. High values mean faster complex formation, low ones slower complex formation.

In experiment [1] the target is iLID-CAAX. Briefly: cytosol-to-membrane translocation in NIH3T3 cells.
Experiment [2] addresses iLID-CAAX. In words: cytosol-to-membrane redistribution in NIH3T3 cells.
In experiment [3] the target is mCherry (purified, His-tag cleaved off). Briefly: BLI (Octet RED96e); His-tagged nanobody on Ni-NTA sensor, tagless mCherry in solution; no illumination. For orientation: In BLI a coated tip is dipped into the sample, and binding shifts an interference pattern.
The target is the same in experiment [4]. In words: OCTET BLI; His-tagged nanobody on Ni-NTA biosensor, tag-free mCherry in solution.
Experiment [5] addresses T1, YFP-SH2 (human, UniProt P00519 112-232).
T1 construct: domain: SH2 domain; also called SH2-tagged YFP; EZ-L703
T1 sequence (looked up): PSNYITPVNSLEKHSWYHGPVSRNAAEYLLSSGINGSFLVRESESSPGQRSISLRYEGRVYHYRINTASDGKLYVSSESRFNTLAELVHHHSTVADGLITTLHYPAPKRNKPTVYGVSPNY
Briefly: BLI (Octet RED96e); His-tagged binder on Ni-NTA sensor, YFP-SH2 in solution.

Experiment [6] concerns the target T1, YFP-SH2. In words: BLI; binder on Ni-NTA sensor, YFP-SH2 in solution; ambient light.
For experiment [7], the target named is T2, His6-YFP-SH2 (human, UniProt P00519 112-232).
T2 construct: domain: SH2 domain; also called 6xHis-YFP-protein fusion
T2 sequence (looked up): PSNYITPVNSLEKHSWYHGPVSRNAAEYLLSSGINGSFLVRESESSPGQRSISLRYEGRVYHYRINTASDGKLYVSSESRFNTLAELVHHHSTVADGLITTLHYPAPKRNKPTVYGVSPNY
In words: pull-down on His6-YFP-SH2 cobalt beads, SDS-PAGE densitometry.
Procedure: (§1) The His6-YFP-SH2 supernatant was then mixed with 4.5 mL of a 50% suspension of Co-charged agarose resin (Talo®), previously equilibrated in Binding buffer, and incubated at 4° C., rocking for 45 min. The suspension was sedimented by gravity and the supernatant discarded. The beads were then thoroughly washed with Binding buffer with approximately 50 times the resin or column volume. The beads (now with His6-YFP-SH2 bound) were then finally resuspended in Binding buffer to a total volume of 13.5 mL. The bead suspension was equally divided into 9 conical tubes of 15 mL (having each 1.5 mL of the bead suspension). Four of these tubes were used for experiments under blue light with LED panels (450 nm and intensity of 45 μmol/m²/s) while the other four were used for experiments in the dark (wrapped in aluminum foil). Experiments were performed in a dark room and red light was used occasionally for visualization purposes. The remaining tube was left as a control for His6-YFP-SH2 binding. Samples of 2.5 mL of bacterial clarified lysates containing either the monobody HA4 supernatant or each one of the chimeras were added to separate tubes of resin. The mixtures were then incubated for 45 minutes (at 4° C. and constant vertical rotation of 20 rpm) under blue light or dark conditions. […]

Experiment [8] concerns the target T2, His6-YFP-SH2. In words: pull-down on Co2+ agarose beads with His6-YFP-SH2, crude chimera lysate, light or dark, SDS-PAGE.
Procedure: as §1
For experiment [9], the target named is T1, YFP-SH2. Briefly: BLI; binder on Ni-NTA sensor, YFP-SH2 in solution; lit conformation, ambient light.
Procedure: (§2) Ni-NTA sensors (ForteBio) were first equilibrated using Buffer A for 10 minutes prior the measurement. A volume of 200 μL of Buffer A or protein solutions (previously dialyzed with Buffer A when needed) was added to clear, 96-well plates. During the experimental run, the Ni-NTA sensors were first immersed in Buffer A to record the baseline. […] The sensors were then transferred back into Buffer A to remove unbound protein. […] To measure the unbinding rate constant (koff), the sensors were then moved to wells containing Buffer A to trigger dissociation of YFP-SH2. To measure binding kinetics of the light state, the lid of the Octet remained open during the measurement and a blue LED panel was held above the 96-well plate, maintaining constant blue illumination for the duration of the experiment. […] The raw binding and unbinding data were simultaneously fit to models of the binding and unbinding reactions:
Experiment [10] concerns the target T1, YFP-SH2. Briefly: BLI; His-tagged binder on Ni-NTA sensor, YFP-SH2 in solution; light conformation; average of three measurements.
Procedure: as §2
The target of experiment [11] is T1, YFP-SH2. Briefly: BLI; binder on Ni-NTA sensor, YFP-SH2 in solution; lit conformation, 450 nm light.
Procedure: as §2
In experiment [12] the target is T1, YFP-SH2. Briefly: BLI; Kd of OptoMBV416L (light) against Kd of OptoMBC450V (dark).
Procedure: as §2
Experiment [13] concerns the target T1, YFP-SH2. Briefly: BLI; SUMO-tagged binder on Ni-NTA sensor, YFP-SH2 in solution; lit conformation, ambient light.
Procedure: as §2
Experiment [14] concerns the target T3, SH2-PDC1 (human; Saccharomyces cerevisiae).
T3 construct: No His tag; also called SH2-tagged Pdc1p; EZ-L886
T3 chain: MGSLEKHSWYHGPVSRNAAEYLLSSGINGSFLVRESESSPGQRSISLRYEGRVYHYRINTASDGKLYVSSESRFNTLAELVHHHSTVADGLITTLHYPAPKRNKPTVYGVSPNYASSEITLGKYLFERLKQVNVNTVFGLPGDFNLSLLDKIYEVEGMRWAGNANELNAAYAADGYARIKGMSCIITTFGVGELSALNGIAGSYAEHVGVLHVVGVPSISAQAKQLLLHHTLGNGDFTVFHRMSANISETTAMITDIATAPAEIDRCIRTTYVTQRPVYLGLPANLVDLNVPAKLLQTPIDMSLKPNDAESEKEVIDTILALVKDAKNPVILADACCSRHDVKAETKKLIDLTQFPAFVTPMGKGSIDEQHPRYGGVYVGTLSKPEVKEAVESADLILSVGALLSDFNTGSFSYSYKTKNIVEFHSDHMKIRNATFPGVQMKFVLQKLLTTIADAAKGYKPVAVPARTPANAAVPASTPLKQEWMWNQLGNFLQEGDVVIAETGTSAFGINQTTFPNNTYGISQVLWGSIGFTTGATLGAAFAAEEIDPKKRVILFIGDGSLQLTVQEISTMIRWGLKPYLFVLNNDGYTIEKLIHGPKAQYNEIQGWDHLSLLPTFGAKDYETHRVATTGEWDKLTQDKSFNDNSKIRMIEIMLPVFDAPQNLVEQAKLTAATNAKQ
Briefly: LCAC in batch; His-tag bound OptoMB on Talon cobalt resin, target from crude E. coli lysate bound in the dark.
Procedure: (§3) After elution, beads were washed with imidazole to recover any remaining protein bound to the beads in order to estimate the capacity and yields of the resin.
(§4) The Resin was rotated in 50 mL conical tubes (covered with aluminum foil) at room temperature for 20 minutes and then poured in 20 mL BioRad glass Econo-Columns and washed with Buffer A (50 column volumes). […] The mixture was then vertically rotated gently for 45 minutes in 15 ml conical tubes.

The target in experiment [15] is T1, YFP-SH2. The experiment is described as above.
Procedure: as §3, §4
The target of experiment [16] is T3, SH2-PDC1. In words: LCAC in batch, Talon resin; share of the resin-bound target eluted by blue light.
Procedure: as §3, §4
Experiment [17] has as its target T1, YFP-SH2. The experiment is described as above.
Procedure: as §3, §4
The target of experiment [18] is T2, His6-YFP-SH2. Briefly: pull-down on Co2+ agarose beads with His6-YFP-SH2, crude chimera lysate, light or dark, SDS-PAGE. This is another data set of the same source.
Procedure: as §1
Experiment [19] has as its target T1, YFP-SH2. In words: BLI; binder on Ni-NTA sensor, YFP-SH2 in solution; dark conformation, 450 nm light.
Procedure: as §2
The target in experiment [20] is T1, YFP-SH2. Briefly: BLI; His-tagged binder on Ni-NTA sensor, YFP-SH2 in solution; dark conformation; average of three measurements.
Procedure: as §2
The target in experiment [21] is T1, YFP-SH2. Briefly: BLI; binder on Ni-NTA sensor, YFP-SH2 in solution; dark conformation, ambient light.
Procedure: as §2

In the experiment with iLID-CAAX [1], BFP-SSPB-SOScat displayed a change in cytosolic intensity between light and dark of 60%. Further, in the experiment with iLID-CAAX [2], the change in cytosolic intensity between light conditions amounted to 60%.

On to “LaM8 anti-mCherry nanobody (His-tagged, purified) (VHH)”, for which, in experiment [3], the Kd worked out at 230 nM, the off-rate (koff) was determined as 0.018 s⁻¹ and the kon was 76000 M⁻¹ s⁻¹. In experiment [4], this molecule showed a Kd of 322 nM, an off-rate constant (koff) of 0.02 s⁻¹ and an association rate constant (kon) of 75200 M⁻¹ s⁻¹.

B1: Monobody HA4 (His6-tagged, purified) (designed binder)
chain: HHHHHHSSGENLYFQGHASGSSVSSVPTKLEVVAATPTSLLISWDAPMSSSSVYYYRITYGETGGNSPVQEFTVPYSSSTATISGLSPGVDYTITVYAWGEDSAGYMFMYSPISINYRTC
In the experiment with YFP-SH2 [5], B1 had a dissociation constant Kd of 230 nM, a dissociation rate constant (koff) of 0.0145 s⁻¹ and an on-rate constant (kon) of 63100 M⁻¹ s⁻¹. In the experiment with YFP-SH2 [6], this molecule displayed a dissociation constant (Kd) of 280 nM, an off-rate constant (koff) of 0.0145 s⁻¹ and a kon of 51000 M⁻¹ s⁻¹.

B2: HA4-AsLOV2 chimera, SS58 insertion, untagged (OptoMB) (designed binder)
chain: GSSVSSVPTKLEVVAATPTSLLISWDAPMSSSSVYYYRITYGETGGNSPVQEFTVPYSGLERIEKNFVITDPRLPDNPIIFASDSFLQLTEYSREEILGRNCRFLQGPETDRATVRKIRDAIDNQTEVTVQLINYTKSGKKFWNLFHLQPMRDQKGDVQYFIGVQLDGTEHVRDAAEREGVMLIKKTAENIDEAAGSSTATISGLSPGVDYTITVYAWGEDSAGYMFMYSPISINYRTC
notes: Used as crude E. coli extract in the pull-down screen; also called alphaSH2 OptoMonobody; EZ-L706
As to B2, the “band intensity, dark against light” value with His6-YFP-SH2 [7] is about 2.1 fold.

B3: HA4-AsLOV2 chimera, NS47 insertion (designed binder)
chain: GSSVSSVPTKLEVVAATPTSLLISWDAPMSSSSVYYYRITYGETGGNGLERIEKNFVITDPRLPDNPIIFASDSFLQLTEYSREEILGRNCRFLQGPETDRATVRKIRDAIDNQTEVTVQLINYTKSGKKFWNLFHLQPMRDQKGDVQYFIGVQLDGTEHVRDAAEREGVMLIKKTAENIDEAAGSPVQEFTVPYSSSTATISGLSPGVDYTITVYAWGEDSAGYMFMYSPISINYRTC
Consider B3, for which the binding result in the experiment with His6-YFP-SH2 [8] is recorded as “no binding”.

B4: OptoMBV416L (designed binder)
chain: HHHHHHGSGSGSDQEAKPSTEDLGDKKEGEYIKLKVIGQDSSEIHFKVKMTTHLKKLKESYCQRQGVPMNSLRFLFEGQRIADNHTPKELGMEEEDVIEVYQEQTGGHMASKGSSVSSVPTKLEVVAATPTSLLISWDAPMSSSSVYYYRITYGETGGNSPVQEFTVPYSGLERIEKNFLITDPRLPDNPIIFASDSFLQLTEYSREEILGRNCRFLQGPETDRATVRKIRDAIDNQTEVTVQLINYTKSGKKFWNLFHLQPMRDQKGDVQYFIGVQLDGTEHVRDAAEREGVMLIKKTAENIDEAAGSSTATISGLSPGVDYTITVYAWGEDSAGYMFMYSPISINYRTC
notes: T0006 lists the V416L plasmid with His6-SUMO; also called OptoMBV416L 1; OptoMBV416L 2
In the case of B4, in the experiment with YFP-SH2 [9], binding was put at a Kd of 87000 nM, the dissociation rate constant (koff) was 0.25 s⁻¹ and the on-rate constant (kon) came to 2900 M⁻¹ s⁻¹. In the experiment with YFP-SH2 [10], this molecule yielded a Kd of 63000 nM, a koff of 0.23 s⁻¹ and a kon of 4000 M⁻¹ s⁻¹. In the experiment with YFP-SH2 [11], the Kd was 60000 nM and 42000 nM; the off-rate (koff) was 0.2 s⁻¹ and 0.24 s⁻¹; the association rate constant (kon) was 3300 M⁻¹ s⁻¹ and 5800 M⁻¹ s⁻¹. For the same molecule, the “fold change in binding affinity, light against dark” value with YFP-SH2 [12] was about 330 fold.

B5: OptoMBV416I_G528A_N538E (His6-SUMO tagged) (designed binder)
chain: HHHHHHGSGSGSDQEAKPSTEDLGDKKEGEYIKLKVIGQDSSEIHFKVKMTTHLKKLKESYCQRQGVPMNSLRFLFEGQRIADNHTPKELGMEEEDVIEVYQEQTGGHMASKGSSVSSVPTKLEVVAATPTSLLISWDAPMSSSSVYYYRITYGETGGNSPVQEFTVPYSGLERIEKNFIITDPRLPDNPIIFASDSFLQLTEYSREEILGRNCRFLQGPETDRATVRKIRDAIDNQTEVTVQLINYTKSGKKFWNLFHLQPMRDQKGDVQYFIGVQLDGTEHVRDAAEREAVMLIKKTAEEIDEAAGSSTATISGLSPGVDYTITVYAWGEDSAGYMFMYSPISINYRTC
notes: also called OptoMBTriple
Consider B5, for which, in the experiment with YFP-SH2 [13], the Kd was over 100000 nM; the off-rate (koff) was 0.1 s⁻¹ and 0.13 s⁻¹; the on-rate constant (kon) was under 1000 M⁻¹ s⁻¹. The “Resin Capacity” value in the experiment with SH2-PDC1 [14] was 5.24 mg/mL. Moreover, the “Resin Capacity” value in the experiment with YFP-SH2 [15] stood at 4.5 mg/mL. For the same molecule, the “Yield (% of recovery from the resin)” value with SH2-PDC1 [16] was 39%. In the experiment with YFP-SH2 [17], the “Yield (% of recovery from the resin)” value is 29.8%.

B6: HA4-AsLOV2 chimera, SG65 insertion (designed binder)
chain: GSSVSSVPTKLEVVAATPTSLLISWDAPMSSSSVYYYRITYGETGGNSPVQEFTVPYSSSTATISGLERIEKNFVITDPRLPDNPIIFASDSFLQLTEYSREEILGRNCRFLQGPETDRATVRKIRDAIDNQTEVTVQLINYTKSGKKFWNLFHLQPMRDQKGDVQYFIGVQLDGTEHVRDAAEREGVMLIKKTAENIDEAAGGLSPGVDYTITVYAWGEDSAGYMFMYSPISINYRTC
On to B6, for which the binding result in the experiment with His6-YFP-SH2 [18] is listed as “no binding”.

B7: OptoMBC450V (designed binder)
chain: HHHHHHSSGENLYFQGHASGSSVSSVPTKLEVVAATPTSLLISWDAPMSSSSVYYYRITYGETGGNSPVQEFTVPYSGLERIEKNFVITDPRLPDNPIIFASDSFLQLTEYSREEILGRNVRFLQGPETDRATVRKIRDAIDNQTEVTVQLINYTKSGKKFWNLFHLQPMRDQKGDVQYFIGVQLDGTEHVRDAAEREGVMLIKKTAENIDEAAGSSTATISGLSPGVDYTITVYAWGEDSAGYMFMYSPISINYRTC
notes: also called OptoMBC450V 1; OptoMBC450V 2
In the experiment with YFP-SH2 [19], B7 gave a Kd of 270 nM, a dissociation rate constant (koff) of 0.013 s⁻¹ and a kon of 48000 M⁻¹ s⁻¹. In the experiment with YFP-SH2 [20], this molecule yielded a Kd of 190 nM, a koff of 0.01 s⁻¹ and an association rate constant (kon) of 71000 M⁻¹ s⁻¹. For the same molecule, in the experiment with YFP-SH2 [21], the koff is 0.006 s⁻¹ and 0.013 s⁻¹; the kon is 110000 M⁻¹ s⁻¹ and 56000 M⁻¹ s⁻¹.

B8: HA4-AsLOV2 chimera, SA84 insertion (designed binder)
chain: GSSVSSVPTKLEVVAATPTSLLISWDAPMSSSSVYYYRITYGETGGNSPVQEFTVPYSSSTATISGLSPGVDYTITVYAWGEDSGLERIEKNFVITDPRLPDNPIIFASDSFLQLTEYSREEILGRNCRFLQGPETDRATVRKIRDAIDNQTEVTVQLINYTKSGKKFWNLFHLQPMRDQKGDVQYFIGVQLDGTEHVRDAAEREGVMLIKKTAENIDEAAGAGYMFMYSPISINYRTC
With B8, in the experiment with His6-YFP-SH2 [8], the binding result is “no binding”.
